Experimental data from PMC7540478.

What was measured:
purified protein [1] = substrate: O=P(O)(O)O[C@H]1O[C@H](CO)[C@@H](O)[C@H](O)[C@H]1O; assay: purified protein; settings: 2 M glycerol as acceptor, 50 mM MES pH 7.0, 30 °C
purified protein [2] = substrate: OC[C@H]1O[C@@](CO)(O[C@H]2O[C@H](CO)[C@@H](O)[C@H](O)[C@H]2O)[C@@H](O)[C@@H]1O; assay: purified protein; settings: 2 M glycerol as acceptor, 50 mM MES pH 7.0, 30 °C

B1: LmSucP (Leuconostoc mesenteroides) (protein)
chain: MEIQNKAMLITYADSLGKNLKDVHQVLKEDIGDAIGGVHLLPFFPSTGDRGFAPADYTRVDAAFGDWADVEALGEEYYLMFDFMINHISRESVMYQDFKKNHDDSKYKDFFIRWEKFWAKAGENRPTQADVDLIYKRKDKAPTQEITFDDGTTENLWNTFGEEQIDIDVNSAIAKEFIKTTLEDMVKHGANLIRLDAFAYAVKKVDTNDFFVEPEIWDTLNEVREILTPLKAEILPEIHEHYSIPKKINDHGYFTYDFALPMTTLYTLYSGKTNQLAKWLKMSPMKQFTTLDTHDGIGVVDARDILTDDEIDYASEQLYKVGANVKKTYSSASYNNLDIYQINSTYYSALGNDDAAYLLSRVFQVFAPGIPQIYYVGLLAGENDIALLESTKEGRNINRHYYTREEVKSEVKRPVVANLLKLLSWRNESPAFDLAGSITVDTPTDTTIVVTRQDENGQNKAVLTADAANKTFEIVENGQTVMSSDNLTQN
Km (purified protein [1]): 12.5 ± 1.7 mM | kcat (purified protein [1]): 36 ± 3 s⁻¹ | Km (purified protein [2]): 1.4 ± 0.1 mM
